According to publication PMC4549301 (2015):

B1: GST–HCF-1rep1, wild type (HCF-1 residues 867–1071) [human] / Recombinant human O-linked β-N-acetylglucosamine transferase (OGT), wild type [human] (parent)
chain 1: PAVTTLVVKGTTGVTTLGTVTGTVSTSLAGAGGHSTSASLATPITTLGTIATLSSQVINPTAITVSAAQTTLTAAGGLTTPTITMQPVSQPTQVTLITAPSGVEAQPVHDLPVSILASPTTEQPTATVTIADSGQGDVQPGTVTLVCSNPPCETHETGTTNTATTTVVANLGGHPQPTQVQFVCDRQEAAASLVTSTVGQQNGSV
chain 2: MASSVGNVADSTGLAELAHREYQAGDFEAAERHCMQLWRQEPDNTGVLLLLSSIHFQCRRLDRSAHFSTLAIKQNPLLAEAYSNLGNVYKERGQLQEAIEHYRHALRLKPDFIDGYINLAAALVAAGDMEGAVQAYVSALQYNPDLYCVRSDLGNLLKALGRLEEAKACYLKAIETQPNFAVAWSNLGCVFNAQGEIWLAIHHFEKAVTLDPNFLDAYINLGNVLKEARIFDRAVAAYLRALSLSPNHAVVHGNLACVYYEQGLIDLAIDTYRRAIELQPHFPDAYCNLANALKEKGSVAEAEDCYNTALRLCPTHADSLNNLANIKREQGNIEEAVRLYRKALEVFPEFAAAHSNLASVLQQQGKLQEALMHYKEAIRISPTFADAYSNMGNTLKEMQDVQGALQCYTRAIQINPAFADAHSNLASIHKDSGNIPEAIASYRTALKLKPDFPDAYCNLAHCLQIVCDWTDYDERMKKLVSIVADQLEKNRLPSVHPHHSMLYPLSHGFRKAIAERHGNLCLDKINVLHKPPYEHPKDLKLSDGRLRVGYVSSDFGNHPTSHLMQSIPGMHNPDKFEVFCYALSPDDGTNFRVKVMAEANHFIDLSQIPCNGKAADRIHQDGIHILVNMNGYTKGARNELFALRPAPIQAMWLGYPGTSGALFMDYIITDQETSPAEVAEQYSEKLAYMPHTFFIGDHANMFPHLKKKAVIDFKSNGHIYDNRIVLNGIDLKAFLDSLPDVKIVKMKCPDGGDNADSSNTALNMPVIPMNTIAEAVIEMINRGQIQITINGFSISNGLATTQINNKAATGEEVPRTIIVTTRSQYGLPEDAIVYCNFNQLYKIDPSTLQMWANILKRVPNSVLWLLRFPAVGEPNIQQYAQNMGLPQNRIIFSPVAPKEEHVRRGQLADVCLDTPLCNGHTTGMDVLWAGTPMVTMPGETLASRVAASQLTCLGCLELIAKNRQEYEDIAVKLGTDLEYLKKVRGKVWKQRISSPLFNTKQYTMELERLYLQMWEHYAAGNKPDHMIKPVEVTESA

Variants of: B1
Experiment: in vitro HCF-1rep1-OGT binding assay (OGT pull-down, quantified immunoblot)
Settings: with Recombinant human O-linked β-N-acetylglucosamine transferase (OGT), in the presence of UDP-GlcNAc, read off a plot

Row | Variant | screen value (log2 fold change)
1 | chain 1 E153A | 0.8
